# PMC12203963
# B1: ALFA-tagged IRT1 (iron-regulated transporter 1), wildtype [Arabidopsis thaliana] / CIPK23 fused to the mCitC fragment [not stated] (parent)
# chain 1: MASRTTPSRSTPSRSTPSGSSSGGRTRVGKYELGRTLGEGTFAKVKFARNVENGDNVAIKVIDKEKVLKNKMIAQIKREISTMKLIKHPNVIRMFEVMASKTKIYFVLEFVTGGELFDKISSNGRLKEDEARKYFQQLINAVDYCHSRGVYHRDLKPENLLLDANGALKVSDFGLSALPQQVREDGLLHTTCGTPNYVAPEVINNKGYDGAKADLWSCGVILFVLMAGYLPFEDSNLTSLYKKIFKAEFTCPPWFSASAKKLIKRILDPNPATRITFAEVIENEWFKKGYKAPKFENADVSLDDVDAIFDDSGESKNLVVERREEGLKTPVTMNAFELISTSQGLNLGSLFEKQMGLVKRKTRFTSKSSANEIVTKIEAAAAPMGFDVKTNNYKMKLTGEKSGRKGQLAVATEVFQVAPSLYMVEMRKSGGDTLEFHKFYKNLTTGLKDIVWKTIDEEKEEGTDGGGTNGAMANRTIAKQST
# chain 2: ISPATSTAPEECGSESANPCVNKAKALPLKVIAIFVILIASMIGVGAPLFSRNVSFLQPDGNIFTIIKCFASGIILGTGFMHVLPDSFEMLSSICLEENPWHKFPFSGFLAMLSGLITLAIDSMATSLYTSKNAVGIMPHGHGHGHGPANDVTLPIKEDDSSNAQLLRYRVIAMVLELGIIVHSVVIGLSLGATSDTCTIKGLIAALCFHQMFEGMGLGGCILQAEYTNMKKFVMAFFFAVTTPFGIALGIALSTVYQDNSPKALITVGLLNACSAGLLIYMALVDLLAAEFMGPKLQGSIKMQFKCLIAALLGCGGMSIIAKWA
# Variants of: B1
# Assay: trimolecular fluorescence complementation (TriFC)
# Conditions: with CIPK23 fused to the mCitC fragment; parent: 74; read off a plot
row,response,Variant
1,46,chain 2 ISPATSTAPEECGSESANPCVNKAKALPLKVIAIFVILIASMIGVGAPLFSRNVSFLQPDGNIFTIIKCFASGIILGTGFMHVLPDSFEMLSSICLEENPWHKFPFSGFLAMLSGLITLAIDSMATSLYTSKNAVGIMPAGAGHGHGPANDVTLPIKEDDSSNAQLLRYRVIAMVLELGIIVHSVVIGLSLGATSDTCTIKGLIAALCFHQMFEGMGLGGCILQAEYTNMKKFVMAFFFAVTTPFGIALGIALSTVYQDNSPKALITVGLLNACSAGLLIYMALVDLLAAEFMGPKLQGSIKMQFKCLIAALLGCGGMSIIAKWA [chain 2 H140A H142A]
2,23,chain 2 ISPATSTAPEECGSESANPCVNKAKALPLKVIAIFVILIASMIGVGAPLFSRNVSFLQPDGNIFTIIKCFASGIILGTGFMHVLPDSFEMLSSICLEENPWHKFPFSGFLAMLSGLITLAIDSMATSLYTSKNAVGIMPAGAGHGHGPANQVTLPIKEDDSSNAQLLRYRVIAMVLELGIIVHSVVIGLSLGATSDTCTIKGLIAALCFHQMFEGMGLGGCILQAEYTNMKKFVMAFFFAVTTPFGIALGIALSTVYQDNSPKALITVGLLNACSAGLLIYMALVDLLAAEFMGPKLQGSIKMQFKCLIAALLGCGGMSIIAKWA [chain 2 H140A H142A D151Q]
3,67,chain 2 ISPATSTAPEECGSESANPCVNKAKALPLKVIAIFVILIASMIGVGAPLFSRNVSFLQPDGNIFTIIKCFASGIILGTGFMHVLPDSFEMLSSICLEENPWHKFPFSGFLAMLSGLITLAIDSMATSLYTSKNAVGIMPHGHGHGHGPANQVTLPIKEDDSSNAQLLRYRVIAMVLELGIIVHSVVIGLSLGATSDTCTIKGLIAALCFHQMFEGMGLGGCILQAEYTNMKKFVMAFFFAVTTPFGIALGIALSTVYQDNSPKALITVGLLNACSAGLLIYMALVDLLAAEFMGPKLQGSIKMQFKCLIAALLGCGGMSIIAKWA [chain 2 D151Q]
